# From the RNAGym collection of RNA variant scans (doi:10.1073/pnas.2313332121)
# B1: TPR t1 (parent)
# chain: GACCAAUCUGCCCUCAGAGCUCGAGAACAUCUUCGGAUGCAGAGGAGGCAGGCUUCGGUGGCGCGAUAGCGCCAACGUCCUCAACCUCCAAUGCAUCCCACCACAUGAUGAUGCCUGAAGAGCCUUGGUUUUUUG
# Variants of: B1
# Assay: polymerase ribozyme fitness, log enrichment relative to wild type (log ratio); higher = more active; in vitro selection for triplet polymerase activity
# In short: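 Mutant libraries for each subunit of a heterodimeric triplet polymerase ribozyme were made by PCR and then transcribed. Each library underwent one round of in vitro selection in triplicate: annealing with a biotinylated primer, the partner subunit and triplets, frozen incubation at −7 °C, gel excision of extended constructs, streptavidin-bead capture and RT-PCR. Input and output libraries were Illumina-sequenced, and only genotypes with ≥10 input reads and ≥1 read per output were kept. Fitness is the logarithm, base 2, of genotype enrichment over wild-type enrichment, computed from inverse-variance-weighted replicate averages.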
row,Variant,polymerase ribozyme fitness (log ratio)
1,GACCAAUCUGCCCUCAGAGCUCGAGAACAUCUUCGGAUGCAGAGGAGGCAGGCUUCGGUGGCGCGAUAGCGCCAACGUCCUCAACCUCCAGUGCAUCCCAUCACAUGAUAAUGCCUGAAGAGCCUUGGUUUUUUG,-2.85
2,GACCAAUCUGCCCUCAGAGCUCGAGAACAUCUUCGGAUGCAGAGGAGGCAGGCUUCGGUGGCGCGAUAGCGCCAACGUCCUCAACCUCCGAUGCAUCCCACCACAUGAUGAUGCCUGAUGAGCCUUGGUUUUUUG,0.257
3,GACCAAUCUGCCCUCAGAGCUCGAGAACAUCUUCGGAUGCAGAGGAGGCAGGCUUCGGUGGCGCGAUAGCGCCAACGUCCUCAACCUCCACUGCAUCCCACCACAUGAUGAUGCCUGAAGAGCCUUCGUUUUUUG,-2.93
4,GACCAAUCUGCCCUCAGAGCUCGAGAACAUCUUCGGAUGCAGAGGAGGCAGGCUUCGGUGGCGCGAUAGCGCCAACGUCCUCAACCUCCACUGCAUCCCACCACAUGAUGAUGUCUGAAGAGCCUUAGUUUUUUG,-4.1
5,GACCAAUCUGCCCUCAGAGCUCGAGAACAUCUUCGGAUGCAGAGGAGGCAGGCUUCGGUGGCGCGAUAGCGCCAACGUCCUCAACCUCCUAUGCAUCCCACCACAUGAUGAUGCCUGAAGAGCCUUGGUUUUGUG,-1.46
6,GACCAAUCUGCCCUCAGAGCUCGAGAACAUCUUCGGAUGCAGAGGAGGCAGGCUUCGGUGGCGCGAUAGCGCCAACGUCCUCAACCUCCACUGCAUCGCACCACAUGAUGAUACCUGAAGAGCCUUGGUUUUUUG,-5.51
7,GACCAAUCUGCCCUCAGAGCUCGAGAACAUCUUCGGAUGCAGAGGAGGCAGGCUUCGGUGGCGCGAUAGCGCCAACGUCCUCAACCUCCACUGCAUCCCACCACAUGAUGAUGCCUGAAGAGCCUUGGUUUUAUG,-0.906
8,GACCAAUCUGCCCUCAGAGCUCGAGAACAUCUUCGGAUGCAGAGGAGGCAGGCUUCGGUGGCGCGAUAGCGCCAACGUCCUCAACCUCCAGUGCAUCCCACAAAAUGAAGAUGCCUGAAGAGCCUUGGUUUUUUG,-5.59
9,GACCAAUCUGCCCUCAGAGCUCGAGAACAUCUUCGGAUGCAGAGGAGGCAGGCUUCGGUGGCGCGAUAGCGCCAACGUCCUCAACCUCCCAUGCAUUCCACCACAUGAUGAUACCUGAAGAGCCUUGGUUUUUUG,-2.12
10,GACCAAUCUGCCCUCAGAGCUCGAGAACAUCUUCGGAUGCAGAGGAGGCAGGCUUCGGUGGCGCGAUAGCGCCAACGUCCUCAACCUCCAACGCAUCCCACCACAGGAUGAUGCCUGAAGAGCCUUGGUUUUUUC,-3.67
11,GACCAAUCUGCCCUCAGAGCUCGAGAACAUCUUCGGAUGCAGAGGAGGCAGGCUUCGGUGGCGCGAUAGCGCCAACGUCCUCAACCUCCAGUGCAUCCCACCACAUGAUGAUGCCUUAAGAGCCUUGGUUUUUUG,-3.4
12,GACCAAUCUGCCCUCAGAGCUCGAGAACAUCUUCGGAUGCAGAGGAGGCAGGCUUCGGUGGCGCGAUAGCGCCAACGUCCUCAACCUCCAUUGCAUCCCACCACAUGAUGAUGCCUGAAGAGCCUUGUUUUUUUG,-3.95
13,GACCAAUCUGCCCUCAGAGCUCGAGAACAUCUUCGGAUGCAGAGGAGGCAGGCUUCGGUGGCGCGAUAGCGCCAACGUCCUCAACCUCCAGUGCAUCCCACCACAUGAUUAUGCCUGAAGAGCCUUGGUUUUUUG,-2.66
14,GACCAAUCUGCCCUCAGAGCUCGAGAACAUCUUCGGAUGCAGAGGAGGCAGGCUUCGGUGGCGCGAUAGCGCCAACGUCCUCAACCUCCGAUGCAUCCCACCACAUGAUGAUGACUGAAGAGCCUUGGUUUUUUG,-1.4
15,GACCAAUCUGCCCUCAGAGCUCGAGAACAUCUUCGGAUGCAGAGGAGGCAGGCUUCGGUGGCGCGAUAGCGCCAACGUCCUCAACCUCCAAACCAUCCCACCACAUGAUGAUGCCUGAAGAGCCUUGGUUUUUUG,-2.69
16,GACCAAUCUGCCCUCAGAGCUCGAGAACAUCUUCGGAUGCAGAGGAGGCAGGCUUCGGUGGCGCGAUAGCGCCAACGUCCUCAACCUCCCAUGCAUCCCACCAAAUGAUGAUGCCUGAAGAGCCUUGGUUUUUUG,-3.78
17,GACCAAUCUGCCCUCAGAGCUCGAGAACAUCUUCGGAUGCAGAGGAGGCAGGCUUCGGUGGCGCGAUAGCGCCAACGUCCUCAACCUCCAAAGCAUCCCACCAUAUGAUGAUGCCUGAAGAGCCUUGGUUUUUUG,-3.56
18,GACCAAUCUGCCCUCAGAGCUCGAGAACAUCUUCGGAUGCAGAGGAGGCAGGCUUCGGUGGCGCGAUAGCGCCAACGUCCUCAACCUCCGAUGCAUCCCACCACAUGAUGAGGCCUGAAGAGCCUUGGUUUUUUG,1.3
19,GACCAAUCUGCCCUCAGAGCUCGAGAACAUCUUCGGAUGCAGAGGAGGCAGGCUUCGGUGGCGCGAUAGCGCCAACGUCCUCAACCUCCUAUGCAUCCCACCACAUGAUGAUGGCUGGAGAGCCUUGGUUUUUUG,-3.15
20,GACCAAUCUGCCCUCAGAGCUCGAGAACAUCUUCGGAUGCAGAGGAGGCAGGCUUCGGUGGCGCGAUAGCGCCAACGUCCUCAACCUCCAACGCAUCCCACCACAUGAUGAUGCCUGAAUAGCCUUGGUUUUUUG,0.184
21,GACCAAUCUGCCCUCAGAGCUCGAGAACAUCUUCGGAUGCAGAGGAGGCAGGCUUCGGUGGCGCGAUAGCGCCAACGUCCUCAACCUCCAGUGCAUCCCACCAAAUGAUGAUGCCUGAAGAGCCUUGGUUUUUUG,-2.34

row,Variant,polymerase ribozyme fitness (log ratio)
1,GACCAAUCUGCCCUCAGAGCUCGAGAACAUCUUCGGAUGCAGAGGAGGCAGGCUUCGGUGGCGCGAUAGCGCCAACGUCCUCAACCUCCAUUGCAUCCCACCACAUGAUGAUGCCUGAAGAGCCUUGGUUUCUUG,-1.79
2,GACCAAUCUGCCCUCAGAGCUCGAGAACAUCUUCGGAUGCAGAGGAGGCAGGCUUCGGUGGCGCGAUAGCGCCAACGUCCUCAACCUCCAAAGCAUCCCAACACAUGAUGAUGCCUGAAGAGCCUUGGUUUUUUG,-3.47
3,GACCAAUCUGCCCUCAGAGCUCGAGAACAUCUUCGGAUGCAGAGGAGGCAGGCUUCGGUGGCGCGAUAGCGCCAACGUCCUCAACCUCCAAAGCAUCCCACCACAUGAUGAUGCCUGAAGAGCCUUGGUUGUUUG,-2.59
4,GACCAAUCUGCCCUCAGAGCUCGAGAACAUCUUCGGAUGCAGAGGAGGCAGGCUUCGGUGGCGCGAUAGCGCCAACGUCCUCAACCUCCACUGCAUCCCACCACAUGAUGAUGCCUGAAGAGCCUUGGAUUUUUG,-2.78
5,GACCAAUCUGCCCUCAGAGCUCGAGAACAUCUUCGGAUGCAGAGGAGGCAGGCUUCGGUGGCGCGAUAGCGCCAACGUCCUCAACCUCCUAUGCAUCCCACCACAUGAUGAUACCUGAAGAGCCUUGAUUUUUUG,-3.47
6,GACCAAUCUGCCCUCAGAGCUCGAGAACAUCUUCGGAUGCAGAGGAGGCAGGCUUCGGUGGCGCGAUAGCGCCAACGUCCUCAACCUCCAACGCAUCCCACCACAUGAUGAUGCCUGUAGAGCCUUGGUUUUUUG,-0.718
7,GACCAAUCUGCCCUCAGAGCUCGAGAACAUCUUCGGAUGCAGAGGAGGCAGGCUUCGGUGGCGCGAUAGCGCCAACGUCCUCAACCUCCACUGCAUCCCACCACAUGAUGAUGCCUGAAGAGACUUGGUUUUGUG,-1.07
8,GACCAAUCUGCCCUCAGAGCUCGAGAACAUCUUCGGAUGCAGAGGAGGCAGGCUUCGGUGGCGCGAUAGCGCCAACGUCCUCAACCUCCAUUGCAUCCCACCACAUGAUGCUGCCUGAAGAGCCUUGGUUUUUUG,-2.44
9,GACCAAUCUGCCCUCAGAGCUCGAGAACAUCUUCGGAUGCAGAGGAGGCAGGCUUCGGUGGCGCGAUAGCGCCAACGUCCUCAACCUCCCAUGCAUCCCACUACAUGAUGAUGCCUGAAGAGCCUUGGUUUUUUG,-4.08
10,GACCAAUCUGCCCUCAGAGCUCGAGAACAUCUUCGGAUGCAGAGGAGGCAGGCUUCGGUGGCGCGAUAGCGCCAACGUCCUCAACCUCCAAAGCAUCCCACCACAUGAUGAUGCCUGUAGAGCCUUGGUUUUUUG,-1.95
11,GACCAAUCUGCCCUCAGAGCUCGAGAACAUCUUCGGAUGCAGAGGAGGCAGGCUUCGGUGGCGCGAUAGCGCCAACGUCCUCAACCUCCUAUGCAUCCCACCACAUGAUGAUGCCUCAAGAGCCUUGGUUUUUUG,-1.43
12,GACCAAUCUGCCCUCAGAGCUCGAGAACAUCUUCGGAUGCAGAGGAGGCAGGCUUCGGUGGCGCGAUAGCGCCAACGUCCUCAACCUCCAGUCCAUCCCACCACAUGAUGAUGCCUGAACAGCCUUGGUUUUUUG,-2.18
13,GACCAAUCUGCCCUCAGAGCUCGAGAACAUCUUCGGAUGCAGAGGAGGCAGGCUUCGGUGGCGCGAUAGCGCCAACGUCCUCAACCUCCACUGCAUCCCACCACAUGAUGAUGGCUGAAGAGCCUUGGUUUUUUG,-2.5
14,GACCAAUCUGCCCUCAGAGCUCGAGAACAUCUUCGGAUGCAGAGGAGGCAGGCUUCGGUGGCGCGAUAGCGCCAACGUCCUCAACCUCCAACGCAUCCCACCACAUGAUGAUGCCUAAAGAGCCUUGGUUUUUUG,-2.67
15,GACCAAUCUGCCCUCAGAGCUCGAGAACAUCUUCGGAUGCAGAGGAGGCAGGCUUCGGUGGCGCGAUAGCGCCAACGUCCUCAACCUCCCAUGCAUCCCACCACAUGAUGAUGCCUGAAUAGCCUUGGUUUUUUG,-1.31
16,GACCAAUCUGCCCUCAGAGCUCGAGAACAUCUUCGGAUGCAGAGGAGGCAGGCUUCGGUGGCGCGAUAGCGCCAACGUCCUCAACCUCCCAUGCAUCCCACCACAAGGUGAUGCCUGAAGAGCCUUGGUUUUUUG,-2.24
17,GACCAAUCUGCCCUCAGAGCUCGAGAACAUCUUCGGAUGCAGAGGAGGCAGGCUUCGGUGGCGCGAUAGCGCCAACGUCCUCAACCUCCUAUGCAUUCCACCACAUGAUGAUGCCUGAAGAGCCUUGGUUUUUUG,-2.38
18,GACCAAUCUGCCCUCAGAGCUCGAGAACAUCUUCGGAUGCAGAGGAGGCAGGCUUCGGUGGCGCGAUAGCGCCAACGUCCUCAACCUCCAACGCAUCCCACCACAUGAUGAAGCCUGAAGAGCCUUGGUUUUUUG,-0.53
19,GACCAAUCUGCCCUCAGAGCUCGAGAACAUCUUCGGAUGCAGAGGAGGCAGGCUUCGGUGGCGCGAUAGCGCCAACGUCCUCAACCUCCUAUUCAUCCCACCACAUGAUGAUGCCUGAAGAGCCUUGGUUUUUUG,-1.11
20,GACCAAUCUGCCCUCAGAGCUCGAGAACAUCUUCGGAUGCAGAGGAGGCAGGCUUCGGUGGCGCGAUAGCGCCAACGUCCUCAACCUCCAUUGCAUCCCACCACAUGAUGAUGCCUGAAUAGCCUUGGUUUUUUG,-1.93
21,GACCAAUCUGCCCUCAGAGCUCGAGAACAUCUUCGGAUGCAGAGGAGGCAGGCUUCGGUGGCGCGAUAGCGCCAACGUCCUCAACCUCCAUUGCAUCCCAACACAUGAUGAUGCCUGAAGAGCCUUGGUUUUUUG,-2.72
